In assay [1] the target is T1, human CD70 expressed on the surface of cells (human, UniProt P32970 1-193).
T1 construct: whole, on cells; also called cell surface expressed CD70; CD70 on cells
T1 sequence (looked up): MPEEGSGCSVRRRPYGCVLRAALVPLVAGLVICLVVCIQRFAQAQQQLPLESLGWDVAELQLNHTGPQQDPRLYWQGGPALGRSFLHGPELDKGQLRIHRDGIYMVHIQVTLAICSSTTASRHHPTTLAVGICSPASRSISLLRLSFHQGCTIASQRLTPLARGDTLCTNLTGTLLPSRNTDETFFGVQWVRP
In words: FACS MFI at 37 C, Granta 519 cells; reference SGN70. As for the experimental part:
(§1) Several cancer cell lines were tested by FACS analysis for binding of ARGX-110 and SGN70 (described in US2010/0129362) at saturating mAb concentrations (at least 2 μg/ml). This was either done at 4° C. (1 hour incubation of cells with mAbs) or at 37° C. (15 minutes incubation of cells with mAbs). Binding was detected using anti-hIgG1-Fc-FITC (AF006, Binding Site) or anti-hIgG1-Fc-PE antibody (eBioscience, 12-4998). Fluorescence was measured using a flow cytometer.

In assay [2] the target is T1, human CD70 expressed on the surface of …. In words: FACS MFI at 37 C, JVM-2 cells; reference SGN70. As for the experimental part: as §1
For assay [3], the target named is cynomolgus monkey Flag-TNC-CD70 (cynomolgus monkey). As to the kind of experiment: blocking ELISA; cynomolgus Flag-TNC-CD70; competitor CD27-Fc. As for the experimental part: In this assay, a microtiter plate (Nunc Maxisorb) was first coated with 100 μl anti-FLAG M2 monoclonal antibody (Sigma Aldrich, F3165) at 1250-fold dilution in PBS (to achieve a final concentration of approximately 3.5 μg/ml) overnight at 4° C. The plate was washed once with PBS-Tween and incubated at RT for 2 hours with 300 μl PBS-1% casein. The plate was washed a further three times with PBS-Tween. 100 μl of 5 ng/ml (80 pM) Flag-TNC-CD70 (The Journal of Immunology, 2009, 183: 1851-1861) diluted in PBS-0.1% casein was added to the plate and incubated at RT for 1 hour while shaking. The plate was washed five times with PBS-Tween. The CD70 mAb to be tested was added to the plate; various concentrations were achieved by diluting the stock antibody solution in PBS-0.1% casein. Immediately thereafter, 50 μl of 1 μg/ml (final concentration 6.5 nM) recombinant human CD27 Fc chimera (R&D systems 382-CD, MW=46.5 kDa) was added, and incubated at RT for 1 hour while shaking. The plate was washed five times with PBS Tween. 100 μl of biotinylated anti-CD27 (eBioscience 13-0271), diluted 500-fold in PBS-0.1% casein, was added, and the plate incubated at RT for a further hour, while shaking. The plate was washed five times with PBS Tween. […] 100 μl TMB was added to the plate and the OD at 620 nm was measured. […]
On the technique in general: ELISA stands for enzyme-linked immunosorbent assay.

The target of assay [4] is T1, human CD70 expressed on the surface of …. In words: FACS MFI at 37 C, Mino cells; reference SGN70. As for the experimental part:
as §1

For assay [5] the target is unchanged. As to the kind of experiment: FACS MFI at 37 C, HUT78 cells; reference SGN70. As for the experimental part:
as §1

Assay [6] shares this target. In words: FACS MFI at 37 C, A498 cells; reference SGN70. How it is done: as §1
For assay [7] the target is unchanged. In words: FACS MFI at 37 C, MKN-45 cells; reference SGN70. How it is done: as §1
Assay [8] shares this target. In words: FACS MFI at 37 C, EBC-1 cells; reference SGN70. As for the experimental part:
as §1

For assay [9], the target named is T2, human-mouse CD70 chimera chim-4 (Flag-TNC-CD70) (Mus musculus (Mouse), UniProt O55237 54-192).
T2 construct: also called chimera 4
T2 chain: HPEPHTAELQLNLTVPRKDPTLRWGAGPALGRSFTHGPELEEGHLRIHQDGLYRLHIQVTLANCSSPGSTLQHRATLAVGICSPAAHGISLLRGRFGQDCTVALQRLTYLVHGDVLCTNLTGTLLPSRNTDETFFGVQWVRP
As to the kind of experiment: ELISA; chimera captured by anti-Flag mAb.

Assay [10] has as its target T3, human-mouse CD70 chimera chim-2 (Flag-TNC-CD70).
T3 construct: also called chimera 2
T3 chain: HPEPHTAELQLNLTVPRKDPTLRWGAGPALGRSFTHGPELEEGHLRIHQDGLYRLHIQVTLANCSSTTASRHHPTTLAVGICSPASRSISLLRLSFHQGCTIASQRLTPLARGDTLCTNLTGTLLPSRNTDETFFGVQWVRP
In words: ELISA; chimera captured by anti-Flag mAb.

The target in assay [11] is T4, human-mouse CD70 chimera chim-3 (Flag-TNC-CD70).
T4 construct: also called chimera 3
T4 chain: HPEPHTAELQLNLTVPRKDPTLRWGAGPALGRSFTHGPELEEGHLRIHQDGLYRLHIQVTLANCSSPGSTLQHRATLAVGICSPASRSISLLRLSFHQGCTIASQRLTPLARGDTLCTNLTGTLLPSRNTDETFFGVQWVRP
In words: ELISA; chimera captured by anti-Flag mAb.

B1: ARGX-110 (non-fucosylated 41D12 human IgG1) (antibody, V domains shown)
VH: EVQLVESGGGLVQPGGSLRLSCAASGFTFSVYYMNWVRQAPGKGLEWVSDINNEGGTTYYADSVKGRFTISRDNSKNSLYLQMNSLRAEDTAVYYCARDAGYSNHVPIFDSWGQGTLVTVSS
VL: QAVVTQEPSLTVSPGGTVTLTCGLKSGSVTSDNFPTWYQQTPGQAPRLLIYNTNTRHSGVPDRFSGSILGNKAALTITGAQADDEAEYFCALFISNPSVEFGGGTQLTVLG
notes: also called 41D12 (ARGX-110)
What is called IC50 is the concentration that gives 50% inhibition. Regarding B1, the “Signal in FACS of ARGX-110/signal in FACS of SGN70” value amounted to 0.9 ratio in [1]; 2.4 ratio in [2]; 1 ratio in assay [4]; 1 ratio in [5]; 1 ratio in assay [6]; 10.6 ratio in [7]. In [8], the “Signal in FACS of ARGX-110/signal in FACS of SGN70” value was determined as 8.9 ratio. Moreover, the IC50 in assay [3] was 0.048 µg/mL. For the same molecule, the binding result in assay [9], in [10] and in assay [11] was “no binding (tested: dilution series from 10 µg/ml)” each time.
